From US20260201391
Read-outs that look alike come from different tables or passages of the source.

System: thrombin

| Substance | binding signal (fold higher Kd than TBV-08) (Kd of TBV-08 stated as 200-fold lower than Tasset-29) | binding signal (fold higher Kd than TBV-08) (Kd of TBV-08 stated as 300-fold lower than Bock-15) |
| --- | --- | --- |
| Tasset-29 | 200 | – |
| Bock-15 | – | 300 |
